This note sets out measurements from patent US12018068B2, “Anti-O1 antibodies and uses thereof” (priority 2016, dated 2024).

Residue numbers refer to the chain shown, from its start.

By Kd is commonly meant a measure of binding affinity in units of concentration.

The subject of test [1] is K. pneumoniae carbapenem-resistant (CRE) strain Kp1131115 (O1). Kind of test: acute lethal pneumonia model, survival. The format is in vivo, Klebsiella pneumoniae. Conditions: C57BL/6 mice, antibody one hour post bacterial challenge, vs human IgG1 control (R347). As for the experimental part: In an acute pneumonia model, C57BL/6 mice were inoculated intranasally with 1e4 to 1e8 CFU of the multi-drug resistant Klebsiella pneumoniae carbapenam resistant (CRE) clinical isolate strain KP1131115 (O1). Anti-K. pneumoniae monoclonal antibody KPE33 at 0.2, 1, and 5 mg/kg and human IgG1 control antibody at 5 mg/kg were given one hour post bacterial challenge (therapeutic dosing). Mouse survival was monitored daily until up to day 8.
Additionally, in an acute pneumonia model, C57BL/6 mice were inoculated intranasally with 1e4 to 1e8 CFU of the multi-drug resistant Klebsiella pneumoniae carbapenam resistant (CRE) clinical isolate strain KP1131115 (O1). Anti-K. pneumoniae monoclonal antibodies […] and […] at 0.2 and 1 mg/kg and human IgG1 control antibody at 5 mg/kg were given one hour post bacterial challenge (therapeutic dosing). Mouse survival was monitored daily until up to day 8.
KPE33 or KPE33-V-2016 were administered at a dose of 6 mg/kg 1 hour post bacterial infection with a Klebsiella pneumoniae carbapenam resistant strain.

The target in the next test is O1 LPS. The test can be described thus: Octet binding affinity to O1 LPS. The arrangement: species or system Klebsiella pneumoniae. Conditions: average, from on-rate and off-rate, read-out: affinity constant (KD) to O1 LPS. From the text:
In order to reduce potential sequence liabilities for antibody development including potential immunogenicity due to anti-drug antibodies, an unpaired Cysteine in the light chain CDR3 of KPE33 was exchanged with Threonine (T), and somatic mutations in the frameworks 1, 2, and 4 of KPE33 were replaced with germ line residues (as summarized in FIG. 5). CDRs were maintained as wildtype, except for the C107T substitution described above. The optimized KPE33 was named KPE33v2016. […] This platform provides a powerful tool to measure the rate of biomolecular complex formation and complex stability in a more biologically meaningful setting. Briefly, Protein A coated sensors were coated with 2 μg/mL O1 LPS for 10 minutes before being dipped into solution containing 0.2 μg/mL anti-O1 LPS mAbs in Kinetics buffer (ForteBio, dilute 10× to 1× with PBS). Changes in the number of molecules bound to the biosensor caused a shift in the interference pattern that was recorded in real time. […] The affinity constant (KD) of KPE33 and KPE33v2016 to O1 LPS was calculated based on the on-rate and off-rate from Octet sensorgram.
KPE33v2016 was further optimized, thereby creating two new variants—KPE33 H32+L2016(1EQ) and KPE33 H33+L2016(1EQ). Both of these variants contain a Methionine to Isoleucine mutation adjacent to CDRH1, a Tryptophan to Tyrosine mutation in CDRH2, an Aspartate to Glutamate mutation adjacent to CDRH2, Asparagine to Glutamine and Methionine to Leucine mutations in FRH3 and an Aspartate to Asparagine mutation in CDRH3. In addition, KPE33 H32+L2016(1EQ) had four FRH3 residues changed to the germ-line residues, whereas KPE33 H33+L2016(1EQ) only has three of the same FRH3 residues changed to the germ-line. Both of these variants contain the same light chain as KPE33v2016, but with a single Glutamate to Glutamine mutation in residue 1.
A general note: Biolayer interferometry detects binding as a change in optical thickness at a sensor tip.

B1: KPE33 H32+L2016(1EQ): further optimized variant of KPE33v2016, VH SEQ ID NO:61, VL SEQ ID NO:63 (antibody, V domains shown)
VH: QVQLVESGGGLVQPGRSLRLSCAASGFIFDDYAIHWVRQAPGKGLEWVSGIAYKSGATNYAESVKGRFTISRDQSKNSLYLQMNSLRAEDTALYYCTRRRASGDNTFYYFDYWGQGTLVTVSS
VL: QIVLTQSPATLSLSPGERATLSCRASQNVNTNLAWYQQKPGQAPRLLIYDASNRATGIPARFSGSGSGTDFTLTISSLEPEDFAVYYCQQTTNWRYTFGQGTKLEIK
Take B1: the figures for the “survival, lethal pneumonia Kp1131115” value in test [1] and in test [1] (listed as KPE33-H32+L2016(EQ1)) were “dose dependently enhanced survival” and “protect mice from lethal bacterial challenge”, respectively. Further, at O1 LPS, the equilibrium dissociation constant (Kd) was 4.46 nM.

B2: KPE33V2016: sequence optimized KPE33, VH SEQ ID NO:12, VL SEQ ID NO:13 (antibody, V domains shown)
VH: EVQLVESGGGLVQPGRSLRLSCAASGFIFDDYAMHWVRQAPGKGLEWVSGIAWKSGATNYADSVKGRFAISRDNSKKSMYLQMNSLGTEDTALYYCTRRRASGDDTFYYFDYWGQGTLVTVSS
VL: B1 VL with Q1E
modifications: KPE33V2016 VH Amino Acid Sequence; KPE33V2016 VL Amino Acid Sequence
B2: on O1 LPS, the Kd is 4.13 nM.

B3: KPE33 H33+L2016(1EQ): further optimized variant of KPE33v2016, VH SEQ ID NO:62, VL SEQ ID NO:63 (antibody, V domains shown)
VH: B1 VH with N77K
VL: B1 VL
B3: the “survival, lethal pneumonia Kp1131115” value in test [1] is “dose dependently enhanced survival”. Further, the Kd on O1 LPS was 5.01 nM.
